Measurements from publication PMC12489471, “A multi-dentate, cooperative interaction between endo- and exo-ribonucleases within the bacterial RNA degradosome” (Nucleic Acids Research, 2025).
Like-named read-outs stand apart in the source and are kept apart here. Where no end group is shown, it is not given here.

B1: RNase E 511-1061 (domain or fragment, E. coli, UniProt P21513 511-1061, looked up)
chain: ALPSEEEFAERKRPEQPALATFAMPDVPPAPTPAEPAAPVVAPAPKAAPATPAAPAQPGLLSRFFGALKALFSGGEETKPTEQPAPKAEAKPERQQDRRKPRQNNRRDRNERRDTRSERTEGSDNREENRRNRRQAQQQTAETRESRQQAEVTEKARTADEQQAPRRERSRRRNDDKRQAQQEAKALNVEEQSVQETEQEERVRPVQPRRKQRQLNQKVRYEQSVAEEAVVAPVVEETVAAEPIVQEAPAPRTELVKVPLPVVAQTAPEQQEENNADNRDNGGMPRRSRRSPRHLRVSGQRRRRYRDERYPTQSPMPLTVACASPELASGKVWIRYPIVRPQDVQVEEQREQEEVHVQPMVTEVPVAAAIEPVVSAPVVEEVAGVVEAPVQVAEPQPEVVETTHPEVIAAAVTEQPQVITESDVAVAQEVAEQAEPVVEPQEETADIEEVVETAEVVVAEPEVVAQPAAPVVAEVAAEVETVAAVEPEVTVEHNHATAPMTRAPAPEYVPEAPRHSDWQRPTFAFEGKGAAGGHTATHHASAAPARPQPVE
notes: The construct is described nowhere in the methods
B2: E. coli PNPase core, lacking S1 and KH domains (domain or fragment, UniProt P05055 1-552, looked up)
chain: MLNPIVRKFQYGQHTVTLETGMMARQATAAVMVSMDDTAVFVTVVGQKKAKPGQDFFPLTVNYQERTYAAGRIPGSFFRREGRPSEGETLIARLIDRPIRPLFPEGFVNEVQVIATVVSVNPQVNPDIVAMIGASAALSLSGIPFNGPIGAARVGYINDQYVLNPTQDELKESKLDLVVAGTEAAVLMVESEAQLLSEDQMLGAVVFGHEQQQVVIQNINELVKEAGKPRWDWQPEPVNEALNARVAALAEARLSDAYRITDKQERYAQVDVIKSETIATLLAEDETLDENELGEILHAIEKNVVRSRVLAGEPRIDGREKDMIRGLDVRTGVLPRTHGSALFTRGETQALVTATLGTARDAQVLDELMGERTDTFLFHYNFPPYSVGETGMVGSPKRREIGHGRLAKRGVLAVMPDMDKFPYTVRVVSEITESNGSSSMASVCGASLALMDAGVPIKAAVAGIAMGLVKEGDNYVVLSDILGDEDHLGDMDFKVAGSRDGISALQMDIKIEGITKEIMQVALNQAKGARLHILGVMEQAINAPRGDISEFA
notes: polynucleotide phosphorylase (PNPase), E. coli, core aa 1-552 by the methods (1-550 in the results), without the KH and S1 domains; The results and a legend give 1-550 for the core, the methods 1-552; source: E. coli Evo21(DE3), purified (Ni-NTA, intein cleavage, butyl, Q, SEC); not shown: Mycobacterium xenopi GyrA intein, C-terminal, cleaved; His8, C-terminal, cleaved
B3: E. coli PNPase (enzyme, UniProt P05055 1-711, looked up)
chain: MLNPIVRKFQYGQHTVTLETGMMARQATAAVMVSMDDTAVFVTVVGQKKAKPGQDFFPLTVNYQERTYAAGRIPGSFFRREGRPSEGETLIARLIDRPIRPLFPEGFVNEVQVIATVVSVNPQVNPDIVAMIGASAALSLSGIPFNGPIGAARVGYINDQYVLNPTQDELKESKLDLVVAGTEAAVLMVESEAQLLSEDQMLGAVVFGHEQQQVVIQNINELVKEAGKPRWDWQPEPVNEALNARVAALAEARLSDAYRITDKQERYAQVDVIKSETIATLLAEDETLDENELGEILHAIEKNVVRSRVLAGEPRIDGREKDMIRGLDVRTGVLPRTHGSALFTRGETQALVTATLGTARDAQVLDELMGERTDTFLFHYNFPPYSVGETGMVGSPKRREIGHGRLAKRGVLAVMPDMDKFPYTVRVVSEITESNGSSSMASVCGASLALMDAGVPIKAAVAGIAMGLVKEGDNYVVLSDILGDEDHLGDMDFKVAGSRDGISALQMDIKIEGITKEIMQVALNQAKGARLHILGVMEQAINAPRGDISEFAPRIHTIKINPDKIKDVIGKGGSVIRALTEETGTTIEIEDDGTVKIAATDGEKAKHAIRRIEEITAEIEVGRVYTGKVTRIVDFGAFVAIGGGKEGLVHISQIADKRVEKVTDYLQMGQEVPVKVLEVDRQGRIRLSIKEATEQSQPAAAPEAPAAEQGE
notes: polynucleotide phosphorylase (PNPase), E. coli; also called polynucleotide phosphorylase; full-length PNPase; source: E. coli BL21(DE3), purified (ammonium sulfate, Q, butyl-Sepharose, SEC)

Legend:
[1] = target: T1, PNPase (Escherichia coli, UniProt P05055); type: binding, E. coli; conditions: SPR, 25°C, immobilized PNPase C-His, HEPES pH 7.2, contact 60 s
T1 construct: made in house; host or cells: E. coli Evo21(DE3)
Excerpt: Briefly, at the N-terminal of the construct, there is an Hisx6 affinity tag that will be used for affinity purification. Following the Hisx6 tag there is an maltose-binding protein (MBP) tag with a TEV cleavage site to maintain solubility of the peptides. Following the MBP tag the gene encoding the peptide is inserted, and is then followed by intein, a self-cleavable tag, followed by a choline-binding domain, which can be used for an extra step of affinity purification. […] After expression, cells were harvested, resuspended in Lysis Buffer 2 (20 mM Tris–HCl, pH 8.0, 80 mM KCl, 300 mM NaCl, 20 mM Imidazole, 0.5 mM TCEP), and lysed with a cell disruptor (Emulsiflex, Avestin). […] After subsequent rounds of washing with Ni Equilibration Buffer supplemented with, respectively, 0.1% Triton-X, 1 M NaCl, and a final wash in Ni Equilibration Buffer, samples were eluted with Ni Elution Buffer (20 mM Tris–HCl, pH 8.0, 300 mM NaCl, 300 mM imidazole, 0.5 mM TCEP). Enriched fractions were then supplemented with 100 mM β-mercaptoethanol to catalyse intein self-cleavage overnight at room temperature. Treated samples were filtered and loaded on an amylose gravity flow column, equilibrated with Amy Equilibration Buffer (20 mM Tris–HCl, pH 8.0, 20 mM NaCl, 20 mM imidazole, 2 mM β-mercaptoethanol) and after washing, His-tagged TEV protease was applied to the resin and incubated at 4°C for 2 h.
PNPase carrying a C-terminal Hisx6 tag was expressed from pExp-cis-Ec_PNP-CHis vector in E. coli Evo21(DE3) cells, induced with 0.4 mM IPTG, at 18°C overnight. After expression, cells were harvested and resuspended in Lysis Buffer 2 (20 mM Tris–HCl, pH 8.0, 80 mM KCl, 300 mM NaCl, 20 mM imidazole, 0.5 mM TCEP), and lysed with a cell disruptor (Emulsiflex, Avestin). […] After subsequent rounds of washing with equilibration buffer supplemented with 0.1% Triton-X, or 1 M NaCl, the sample was eluted with Ni PNPCHis Elution Buffer (20 mM NaH2PO4, pH 8.0, 300 mM NaCl, 300 mM KCl, 5 mM MgCl2, 300 mM imidazole, pH 7.5, 10 mM β-mercaptoethanol). […] Fractions containing PNPase were run through a HiPrep™ 26/10 Desalting Column (GE Healthcare) and buffer exchanged to Q PNPCHis A (20 mM NaH2PO4, pH 8.0, 30 mM NaCl, 10% glycerol, 0.5 mM TCEP).
Interaction measurements were made using a Biacore T200 instrument (GE) at 25°C. PNPase with a 6xHisTag at the CTD was immobilized on a Series S Sensor Chip NTA (Cytiva) to provide a signal of 5 response units (RU). […] For the SPR analysis of the point mutants, binding to PNPase was measured at four different concentrations (0, 12.5, 25, and 50 nM). All concentrations were run in duplicates. The contact time was 60 s, while the dissociation time was 120 s, at a […] flow rate. […] The chip surface was regenerated with 350 mM EDTA in water, following manufacturer's instructions. Data were processed using the manufacturer’s BIAevaluation software.

[2] = SEC-MALLS molar mass of PNPase and PNPase/RNase E complexes; type: physicochemical
Experimental: Estimation of molar masses of PNPase and the various PNPase/RNase E complexes was carried out by size-exclusion chromatography with multi-angle laser light scattering (SEC-MALLS). Proteins (100 μl at ∼1 mg/ml concentration) were loaded onto a Superdex 200 10/300 Increase GL SEC column (GE Healthcare) at 0.5 ml/min using an AKTA Purifier FPLC system ([…]). Chromatograms were acquired using UNICORN software (GE Healthcare) at 280 nm. The eluent from the S200 column was analysed with an online DAWN HELEOS II MALLS instrument with eight detectors (Wyatt Technology), followed by an Optilab T-rEX differential refractometer (Wyatt Technology) at 25°C. Data collection and analysis were performed using ASTRA 6 software (Wyatt Technology). Eluted peaks from SEC column were evaluated by Zimm Plot, using a dn/dc value of 0.1850 ml/g. Bovine serum albumin was used as a standard to confirm the system performance (Supplementary Table S1).

[3] = target: B3; assay: SEC-MALS; Superdex 200 10/300 Increase, 100 µl at ~1 mg/ml, 25°C; buffer A (50 mM Tris pH 7.5, 100 mM NaCl, 100 mM KCl, 0.01% w/v b-DDM, 1 mM TCEP) or B (A without b-DDM) as Table S2 tells for each sample; the 1:1 ratio is one RNase E segment to one PNPase trimer (expected mass = trimer plus one segment); conditions: both partners purified
[4] = target: the molecule itself; assay: as above
[5] = Superdex 200, 25°C, buffer B: A w/o bDDM

GAAGGHTATHHASAAPARPQPVE [RNase E 1039-1061]
KD range in words ([1]; listed as RNase E peptide 1039–1061): micromolar range
KD range in words ([1]; listed as residues 1039–1061): low μM range

B1
Mn number-averaged solute molar mass [2, 5]: 63,870 Da
Mw weight-averaged solute molar mass [2, 5]: 64,020 Da
Difference Mn from expected mass ([2]; buffer B, expected: trimer:RNase E 1:1 ratio for complexes): 4.4%
stoichiometry N [3]: 1

B2
stoichiometry N [4]: 3

B3
stoichiometry N [4]: 3
